The record followed here is patent US20180194859A1.

The assay deals with Recombinant EGFR/His (UniProt P00533). In words: SPR (Biacore T200), antibody captured on anti-human Fc, EGFR/His as analyte, 1:1 fit. In general terms: Surface plasmon resonance follows binding to a sensor surface in real time, without labels.

Take “αHER2×αEGFR LDAb (trastuzumab IgG2 azide clicked to cetuximab IgG2 DBCO) (bispecific antibody)”: the Kd came out at 2.8 nM.

Usually Kd stands for the concentration at which binding is half-saturated.
